The values that follow come from patent US20240191241, “APTAMERS FOR USE IN THE […] OF CORONAVIRIDAE INFECTIONS” (Berlin Cures GmbH, published 2024).

Data set [1] concerns the target T1, SARS-CoV-2 spike receptor-binding domain control peptide NRKRISN (SARS-CoV-2).
T1 chain: NRKRISN
The experiment in a line: NMR: nearly complete absence of quadruplex formation; also used as control in ITC (50 mM sodium phosphate, 150 mM NaCl, pH 7.16, 25 C). As to conditions: tags: isolated peptide; G4.

Data set [2] concerns the target T2, SARS-CoV-2 spike receptor-binding domain peptide No. 4 (YRLFRK) (SARS-CoV-2).
T2 chain: YRLFRK
Briefly: NMR; quadruplex imino signals induced by peptide; 1 mM each, 90/10 H2O/D2O, 298 K, no additives. As to conditions: tags: isolated peptide; G4.

The target of data set [3] is T3, SARS-CoV-2 RNA-dependent RNA polymerase peptide HRFYRLAN (SARS-CoV-2).
T3 chain: HRFYRLAN
The experiment in a line: ITC; 1:1 stoichiometry; 50 mM sodium phosphate, 150 mM NaCl, pH 7.06, 25 C; quadruplex induction also by NMR; Kd not given. The following applies: tags: isolated peptide; G4. Background: Isothermal titration calorimetry measures the heat released or taken up as one component is titrated into another.

In data set [4] the target is T4, SARS-CoV-2 RNA-dependent RNA polymerase peptide LYRNRDV (SARS-CoV-2).
T4 chain: LYRNRDV
The experiment in a line: NMR; quadruplex fold induced by peptide; 90/10 H2O/D2O, 298 K. As to conditions: tags: isolated peptide; G4.

The target of data set [5] is Thrombin (Homo sapiens, UniProt P00734;P00734 P00734:328-363,P00734:364-622). Briefly: ELONA.

For GGTTGGTGTGGTTGG (ssDNA) [BC007], the binding result in data set [1] is given as “no binding”; in data set [2], “binds”; in data set [3], “binds”; in data set [4] it was “binds”.

Consider GGTTGGTGTGGTTGG (ssDNA) [BC007 5'-biotinylated], for which, in data set [5], the binding result is “binds”.
